Reference: patent US5741689A, “Methods to inhibit serine kinase activity and to alter intersubunit binding activity of phosphatidylinositol 3-kinase, and serine kinase active sequence of the same” (Ludwig Institute for Cancer Research, priority 1994, dated 1998)

B1: GST fusion of the BCR homology region of p85α (amino acids 125-322) (other)
chain: PDVAPPLLIKLVEAIEKKGLECSTLYRTQSSSNPAELRQLLDCDTASLDLEMFDVHVLADAFKRYLLDLPNPVIPVAVSSELISLAPEVQSSEEYIQLLKKLIRSPSIPHQYWLTLQYLLKHFFKLSQTSSKNLLNARVLSELFSPLLFRFPAASSENTEHLIKIIEILISTEWNERQPAPALPPKPPKPTTVANNGM
B2: GST-p110 fusion protein p110-6 (amino acids 760-1069) (other)
chain: QLGNLRLEECRIMSSAKRPLWLNWENPDIMSELLFQNNEIIFKNGDDLRQDMLTLQIIRIMENIWQNQGLDLRMLPYGCLSIGDCVGLIEVVRNSHTIMQIQCKGGLKGALQFNSHTLHQWLKDKNKGEIYDAAIDLFTRSCAGYCVATFILGIGDRHNSNIMVKDDGQLFHIDFGHFLDHKKKKFGYKRERVPFVLTQDFLIVISKGAQECTKTREFERFQEMCYKAYLAIRQHANLFINLFSMMLGSGMPELQSFDDIAYIRKTLALDKTEQEALEYFMKQMNDAHHGGWTTKMDWIFHTIKQHALN
B3: GST fusion of the SH3 domain of p85α (amino acids 1-86) (other)
chain: MSAEGYQYRALYDYKKEREEDIDLHLGDILTVNKGSLVALGFSDGQEAKPEEIGWLNGYNETTGERGDFPGTYVEYIGRKKISPPT
B4: GSTp85β(486-724) (other)
chain: IFEEQGQTQEKCSKEYLERFRREGNEKEMQRILLNSERLKSRIAEIHESRTKLEQELRAQASDNREIDKRMNSLKPDLMQLRKIRDQYLVWLTQKGARQKKINEWLGIKNETEDQYSLMEDEDDLPHHEERTWYVGKINRTQAEEMLSGKRDGTFLIRESSQRGCYACSVVVDGDTKHCVIYRTATGFGFAEPYNLYGSLKELVLHYQHASLVQHNDALTVTLAHPVRAPGPGPPPAAR
B5: GST-p110 fusion protein p110-3 (amino acids 577-1068) (other)
chain: RDEVAQMYCLVKDWPPIKPEQAMELLDCNYPDPMVRGFAVRCLEKYLTDDKLSQYLIQLVQVLKYEQYLDNLLVRFLLKKALTNQRIGHFFFWHLKSEMHNKTVSQRFGLLLESYCRACGMYLKHLNRQVEAMEKLINLTDILKQEKKDETQKVQMKFLVEQMRRPDFMDALQGFLSPLNPAHQLGNLRLEECRIMSSAKRPLWLNWENPDIMSELLFQNNEIIFKNGDDLRQDMLTLQIIRIMENIWQNQGLDLRMLPYGCLSIGDCVGLIEVVRNSHTIMQIQCKGGLKGALQFNSHTLHQWLKDKNKGEIYDAAIDLFTRSCAGYCVATFILGIGDRHNSNIMVKDDGQLFHIDFGHFLDHKKKKFGYKRERVPFVLTQDFLIVISKGAQECTKTREFERFQEMCYKAYLAIRQHANLFINLFSMMLGSGMPELQSFDDIAYIRKTLALDKTEQEALEYFMKQMNDAHHGGWTTKMDWIFHTIKQHALN
B6: GSTp85β(516-724) (other)
chain: RILLNSERLKSRIAEIHESRTKLEQELRAQASDNREIDKRMNSLKPDLMQLRKIRDQYLVWLTQKGARQKKINEWLGIKNETEDQYSLMEDEDDLPHHEERTWYVGKINRTQAEEMLSGKRDGTFLIRESSQRGCYACSVVVDGDTKHCVIYRTATGFGFAEPYNLYGSLKELVLHYQHASLVQHNDALTVTLAHPVRAPGPGPPPAAR
B7: GST-p110 fusion protein p110-1.4 (amino acids 20-81) (other)
chain: ILVECLLPNGMIVTLECLREATLITIKHELFKEARKYPLHQLLQDESSYIFVSVTQEAEREE
B8: GST-p110 fusion protein p110-1.7 (amino acids 37-128) (other)
chain: LREATLITIKHELFKEARKYPLHQLLQDESSYIFVSVTQEAEREEFFDETRRLCDLRLFQPFLKVIEPVGNREEKILNREIGFAIGMPVCEF
B9: GST-p110 fusion protein p110-4 (amino acids 601-960) (other)
chain: LLDCNYPDPMVRGFAVRCLEKYLTDDKLSQYLIQLVQVLKYEQYLDNLLVRFLLKKALTNQRIGHFFFWHLKSEMHNKTVSQRFGLLLESYCRACGMYLKHLNRQVEAMEKLINLTDILKQEKKDETQKVQMKFLVEQMRRPDFMDALQGFLSPLNPAHQLGNLRLEECRIMSSAKRPLWLNWENPDIMSELLFQNNEIIFKNGDDLRQDMLTLQIIRIMENIWQNQGLDLRMLPYGCLSIGDCVGLIEVVRNSHTIMQIQCKGGLKGALQFNSHTLHQWLKDKNKGEIYDAAIDLFTRSCAGYCVATFILGIGDRHNSNIMVKDDGQLFHIDFGHFLDHKKKKFGYKRERVPFVLTQDF
B10: GST-p110 fusion protein p110-1.2 (amino acids 1-81) (other)
chain: MPPRPSSGELWGIHLMPPRILVECLLPNGMIVTLECLREATLITIKHELFKEARKYPLHQLLQDESSYIFVSVTQEAEREE
B11: GST-p110 fusion protein p110-5 (amino acids 760-960) (other)
chain: QLGNLRLEECRIMSSAKRPLWLNWENPDIMSELLFQNNEIIFKNGDDLRQDMLTLQIIRIMENIWQNQGLDLRMLPYGCLSIGDCVGLIEVVRNSHTIMQIQCKGGLKGALQFNSHTLHQWLKDKNKGEIYDAAIDLFTRSCAGYCVATFILGIGDRHNSNIMVKDDGQLFHIDFGHFLDHKKKKFGYKRERVPFVLTQDF

Columns and labels:
[1] = molecular target: T1, PI3-kinase p85α/p110 complex (wild type p110, recombinant, expressed in Sf9 cells), protein-serine kinase activity (Bos taurus, UniProt P32871); test: in vitro protein-serine kinase assay (phosphorylation of p85α) on anti-p110 immunoprecipitates of p85α/p110; assay type: biochemical, bovine; details: DTT alone, final concentration 300 mM; FIG. 17 B lane 2
T1 construct: made in house; host or cells: Sf9 insect cells (baculovirus co-infection)
T1 sequence (P32871 whole entry): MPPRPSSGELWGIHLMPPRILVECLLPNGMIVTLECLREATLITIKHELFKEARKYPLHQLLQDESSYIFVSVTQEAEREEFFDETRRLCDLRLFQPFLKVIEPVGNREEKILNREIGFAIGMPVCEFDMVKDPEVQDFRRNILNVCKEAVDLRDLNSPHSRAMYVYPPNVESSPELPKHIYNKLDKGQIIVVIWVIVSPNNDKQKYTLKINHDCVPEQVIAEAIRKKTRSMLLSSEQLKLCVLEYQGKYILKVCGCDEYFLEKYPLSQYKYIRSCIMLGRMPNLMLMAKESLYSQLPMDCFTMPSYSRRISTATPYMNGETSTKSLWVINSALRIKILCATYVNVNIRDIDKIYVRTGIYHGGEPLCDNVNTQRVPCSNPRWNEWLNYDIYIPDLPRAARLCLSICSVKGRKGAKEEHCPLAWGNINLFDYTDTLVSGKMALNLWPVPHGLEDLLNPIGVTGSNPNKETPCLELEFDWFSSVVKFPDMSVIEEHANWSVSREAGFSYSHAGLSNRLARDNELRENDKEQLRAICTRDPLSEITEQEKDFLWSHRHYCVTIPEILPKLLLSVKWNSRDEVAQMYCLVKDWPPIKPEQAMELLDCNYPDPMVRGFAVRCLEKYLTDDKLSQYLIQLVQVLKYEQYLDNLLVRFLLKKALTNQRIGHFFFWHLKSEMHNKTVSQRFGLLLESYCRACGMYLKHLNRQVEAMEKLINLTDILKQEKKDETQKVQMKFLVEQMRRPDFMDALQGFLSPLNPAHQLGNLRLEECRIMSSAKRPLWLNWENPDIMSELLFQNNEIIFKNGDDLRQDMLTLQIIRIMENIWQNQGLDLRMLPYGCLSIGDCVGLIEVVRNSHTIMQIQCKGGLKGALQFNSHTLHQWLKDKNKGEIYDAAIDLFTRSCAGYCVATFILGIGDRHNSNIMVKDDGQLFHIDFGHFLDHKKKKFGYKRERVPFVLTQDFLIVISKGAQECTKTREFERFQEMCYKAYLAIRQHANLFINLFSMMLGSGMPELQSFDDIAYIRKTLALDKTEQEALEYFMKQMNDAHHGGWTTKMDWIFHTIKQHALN
T1 sequence (P23727 whole entry partner): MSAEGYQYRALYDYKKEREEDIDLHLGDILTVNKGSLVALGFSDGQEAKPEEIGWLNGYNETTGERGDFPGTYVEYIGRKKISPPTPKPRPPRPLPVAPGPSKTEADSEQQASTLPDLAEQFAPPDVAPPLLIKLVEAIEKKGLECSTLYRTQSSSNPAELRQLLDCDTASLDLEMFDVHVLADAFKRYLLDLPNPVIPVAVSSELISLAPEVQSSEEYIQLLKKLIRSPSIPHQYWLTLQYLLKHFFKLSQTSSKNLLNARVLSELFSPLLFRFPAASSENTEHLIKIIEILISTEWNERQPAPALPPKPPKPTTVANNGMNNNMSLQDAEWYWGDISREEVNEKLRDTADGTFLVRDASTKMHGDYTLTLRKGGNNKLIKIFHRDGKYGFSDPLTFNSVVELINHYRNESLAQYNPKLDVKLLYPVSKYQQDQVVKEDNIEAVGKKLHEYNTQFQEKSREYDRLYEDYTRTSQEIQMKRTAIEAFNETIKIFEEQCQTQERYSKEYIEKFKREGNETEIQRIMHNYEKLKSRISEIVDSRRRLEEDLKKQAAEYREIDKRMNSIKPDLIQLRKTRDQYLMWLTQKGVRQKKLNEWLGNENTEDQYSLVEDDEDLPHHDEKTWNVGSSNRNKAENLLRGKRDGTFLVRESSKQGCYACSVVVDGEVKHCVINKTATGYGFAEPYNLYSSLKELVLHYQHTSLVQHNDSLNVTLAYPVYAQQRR
Experimental: Anti-p110 immunoprecipitates of p85α/p110 were used to study the kinetics of phosphorylation. The Km (ATP) for the phosphorylation of p85α was measured as approximately 4 μM. The stoichiometry of phosphorylation of p85α was then measured in the presence of excess ATP (50 μM). Approximately 0.9 mol of phosphate was incorporated into one mol of p85α protein.
A further experiment to determine in vitro kinase activity with treatment of Nbs2 and DTT was also conducted. Lysates of Sf9 cells that had been coinfected with p85α/p110 baculoviruses were also treated as follows: the lysates were immunoprecipitated with anti-p110 antibodies and treated as follows: untreated (see FIG. 17, B, lane 1); 300 mM DTT (lane 2); 0.3 mM Nbs2 (lane 3); pretreated with 0.3 mM Nbs2 and then incubated with 3 mM DTT, 30 mM DTT, 300 mM DTT (lanes 4, 5, 6 respectively). Samples were then subjected to in vitro kinase assays and analysis by SDS-PAGE was conducted. Phosphorylated proteins were visualized by autoradiography.
The p110 protein was immunoprecipitated from insect cells, and equal amounts of each GST fusion protein or the GST protein alone, were mixed with p110 and the proteins were allowed to phosphorylate in vitro. […] Phosphorylated proteins were analyzed by SDS-PAGE and autoradiography.

[2] = molecular target: T2, PI3-kinase p85α/p110 complex (wild type, recombinant, expressed in Sf9 cells) (Bos taurus, UniProt P32871); test: in vitro PI3-kinase assay on anti-p110 immunoprecipitates, p85α/p110 complex; assay type: biochemical, bovine
T2 construct: made in house; host or cells: Sf9 insect cells (baculovirus co-infection)
T2 sequence (P32871 whole entry): as the sequence (P32871 whole entry) above
T2 sequence (P23727 whole entry partner): as the sequence (P23727 whole entry partner) above
Experimental: (§1) Insect cells were infected with p85α/p110 complex, (see FIG. 17, A, lanes 1-6) or p110 alone, (see FIG. 17, B, lanes 7-12). The immunoprecipitates were washed twice with PI3-kinase buffer (20 mM Tris-HCl, pH 7.5, 100 mM NaCl, 0.5 mM EDTA). The samples were untreated or treated with 0.3 mM 5,5'-Dithio-bis [2-nitrobenzoic acid] (Nbs2) for 15 minutes at 22° C. Excess reagent was removed by washing the complexes three times with PI3-kinase buffer and the immunoprecipitate was then incubated for 15 minutes at 22° C. with increasing concentrations of dithiothreitol (DTT). A control sample was incubated with DTT alone at a final concentration of 300 mM. The remaining DTT was removed by washing with lysis buffer and the immunoprecipitates were subjected to PI3-kinase assays or to in vitro protein kinase assays described below.
(§2) The experiment was carried out and the experimental results set forth in FIG. 17, A. In vitro PI3-kinase assays were performed on anti-p110 immunoprecipitates of these cells that had been treated as follows: untreated (see FIG. 17, A, lane 1 and 7); 300 mM DTT (lanes 2 and 8); treated with 0.3 mM Nbs2 (lanes 3 and 9); immunoprecipitates pretreated with 0.3 mM Nbs2 incubated with 3 mM DTT (lanes 4 and 10), 30 mM DTT (lanes 5 and 11); 300 mM DTT (lanes 6 and 12).

[3] = molecular target: T3, PI3-kinase p110 subunit alone (wild type, recombinant, expressed in Sf9 cells) (Bos taurus, UniProt P32871); test: in vitro PI3-kinase assay on anti-p110 immunoprecipitates, p110 alone; assay type: biochemical, bovine
T3 construct: made in house; host or cells: Sf9 insect cells (baculovirus)
T3 sequence (P32871 whole entry): as the sequence (P32871 whole entry) above
Experimental: as §1, §2

[4] = molecular target: p110 subunit of PI3-kinase (bovine, wild type, recombinant) (bovine) (UniProt P32871); test: GST fusion on glutathione-sepharose, p110 Sf9 lysate, bound PI3-kinase activity
[5] = molecular target: p85α subunit of PI3-kinase (bovine, full length, recombinant) (bovine) (UniProt P23727)
[6] = molecular target: p110 subunit of PI3-kinase (bovine, wild type, recombinant) (bovine, UniProt P32871); test: GST fusion on glutathione-sepharose, p110 Sf9 lysate, bound PI3-kinase activity
Experimental: GST fusion proteins of the various subdomains of p85α were constructed and immobilized on glutathione-sepharose beads, See FIG. 2, A. These proteins were used for affinity analysis with cell lysates prepared from Sf9 cells infected with a recombinant baculovirus expressing p110. The complexes were washed and subjected to PI3-kinase activity. GST alone, and GST p85α bound to glutathione-sepharose beads incubated with wild-type lysate were used as controls.

[7] = molecular target: p85α subunit of PI3-kinase (bovine, full length, recombinant) (bovine, UniProt P23727); test: GST-p110 fusion pull-down from Sf9 lysate expressing p85α
[8] = molecular target: p85β subunit of PI3-kinase (bovine, full length, recombinant) (bovine, UniProt P23726); test: GST-p110 fusion pull-down from Sf9 lysate expressing p85β

| Molecule | binding result [7] | binding result [8] | other results |
| --- | --- | --- | --- |
| O[C@H](CS)[C@H](O)CS (racemic) [DTT, dithiothreitol] | – | – | activation of protein serine kinase activity [1]: slight activation; activation of PI3-kinase activity ([2]; DTT alone, final concentration 300 mM, FIG. 17 A lane 2): slight activation; activation of PI3-kinase activity ([3]; DTT alone, final concentration 300 mM, FIG. 17 A lane 8): slight activation |
| GST-85βΔ486-516 (from UniProt P23726) | – | – | percent of the PI3-kinase activity bound as compared to wild type GSTp85β [4]: 65% |
| p110 subunit of PI3-kinase (bovine, wild type, recombinant) (from UniProt P32871) (enzyme) | – | – | stoichiometry of phosphorylation of p85α, in vitro protein kinase assay (mol of phosphate per mol of p85α) [5]: 0.9 |
| GST-85βΔ445-469 (from UniProt P23726) | – | – | percent of the PI3-kinase activity bound as compared to wild type GSTp85β [4]: 65% |
| O=C(O)c1cc(SSc2ccc([N+](=O)[O-])c(C(=O)O)c2)ccc1[N+](=O)[O-] [Nbs2, 5,5'-Dithio-bis [2-nitrobenzoic acid]] | – | – | inhibition at 300 µM ([2]; 0.25 h, 0.3 mM Nbs2, 15 minutes at 22° C, FIG. 17 A lane 3, read-out: loss of PI3-kinase activity): ~95%; inhibition at 300 µM ([3]; 0.25 h, 0.3 mM Nbs2, 15 minutes at 22° C, FIG. 17 A lane 9, read-out: loss of PI3-kinase activity): ~95% |
| B1 | – | – | binding result [6]: no binding |
| B2 | no binding | no binding | – |
| B3 | – | – | binding result [6]: no binding |
| B4 | – | – | binding result [6]: no binding |
| B5 | no binding | no binding | – |
| B6 | – | – | binding result [6]: no binding |
| B7 | no binding | no binding | – |
| MPPRPSSGELWGIHLMPPRILVECLLPNGMIVTLE (other) [GST-p110 fusion protein p110-1.6 (amino acids 1-35)] | no binding | no binding | – |
| B8 | no binding | no binding | – |
| B9 | no binding | no binding | – |
| B10 | no binding | no binding | – |
| MPPRPSSGELWGIHLMPPRILVECLLPNGMIVTLECLREATLITIKHEL (other) [GST-p110 fusion protein p110-1.1 (amino acids 1-49)] | no binding | no binding | – |
| B11 | no binding | no binding | – |
